The results in this text go back to the DeepSol protein solubility set.

The nature of the series: soluble on expression in E. coli; label from the status in PepcDB or PDB records.
Consider “MAHHHHHHMSSAFLAQLPFVGSSSTLGWQHDDVARSYMEHVLHRARVLLPRRGWRIGLIKEFYPRGATLLGLNVNAGSEVCIRFRVPGKKNEFLPFHEVLCTALHEFTHCVHSRHDRAFWNLYYDLVKECEALEITMIQQGMRLYPAISSTPMSCTGTASQQSRSGREGRTAATASSARGGGRRLGNGGARGGGRGAGGGMSTGSRHVAQTVIKAGRAVSSSSSSPPSSAAFPGEGRRLGGGGFRQYDAPIGFTPTRDALRRILAGAAERRLARTPPLAATVTLGSHPLALSLHNTTFPQRDEGQSEVDDDDAPDCVPHSLSGHEDGGGWNCPRCGFRNDDNVVGSCAFCADCDDEDEGEATWRKRPRLDSDHSPLETPTIVVSLATASKTAPTQQLQQQQLECTAEEHYIVVSDEDDS”, for which the “soluble on expression in E. coli” value is “soluble”.
For “MAHHHHHHMSTSTTHVQKETILSLNYYEIFSLDPSARDVDFGSVHRAYRRFALLFHPDKDPSPAARAAFERVKLAAETLTDPQMRREYDEELLQKLQRSTGTGATSAWQRQQRDVMEEEALAADMILRQKEAATAAKAAAKREEELEKEAAAKQMLHELTNALTTPFKRMEEELVHEWEIDEDLLSMKEKEVESLLQKLREYNEGQGRHGRSVDAHTCGTKRRRSEEETASKV” the value was “soluble”; for “MAHHHHHHMSVRSGQFNYDAVARESPVGFTKITEGTTAVLEPPPKKKTCTSSAAPAPASNLSDEEADNQLVDQAVFYNPAQVVNRDLSISVIEVFSRLRLTEPRRRGGTNEGITILEALSATGLRAIRYYKEITNVRYIIANDMDADAVDCIVRNCAYNGVPVQYPTLMANMPAAAIELYAGEAEAEKGESATGASPRVGVRAGGAILPNLDDANDLMFRLAMNSNAHPGKRVCLVDAPAETSATASLRPLLQQELMDVVDLDPYGSASPFLDGAFRCIKEGGLMLVTSTDSAILCGNFADTAHAKYSSMPYKAAHCHEAAVRTLLACVERVANRHQKFIVPLLSLHIDFYVRCFFRVYKQPAETKLSACKLGYQLQCSSCSAFWVRPMATARQPRPSRQERRRQRRALAGRVNSDADEAEEEGKTAEGAAEASRAHARPRRLSKRVRDGSDDDEAVAHDVDGVRTEVYPASPSRHSHPKITPLTLQQMPSAASATSTTAATACPVCGSSIVLSGPLYAAPTQNCEFLQQLLALLHERASEGRLNAEARITGLVRIALEELPDCPLFYLLPDVASYVRVRCPPTPCIVGALARLGYRCSQVHCAAAGLKTDCPPEVLFRVMLQWKTVQDTLDPVGEATIEDGADKSKKKAPAASTAPRSLLVTPLAEADFTYDKAHDFRGRVTGVAKFVPNASGWGPRRRHRGAAAVPEAVECGNGEDNDGGSGEA”, “not soluble”; for “MAHHHHHHMSVSRFRHSTGHVAKPQRHLLNVTSSTALWDGSNTISCNDKFVAVPWQTFGGTAVFKHDTFGRLAPNPPLVLGQKGQIIDVKFDPFNDQKLFTASEDGSIFGWGIPAEGLQSNILSPLVELKGHNKKCGIISFHPSANGVLASAGVDRVIKVWDVERGTAVNTISSLSDYATGLEWNLRGSLFCVASRDKTLRVIDPRDCTVVSSVESHASARSQRCIWCKRKDTIMTLGCSKSQQRQIKLWDTRKMESPYSVTELDQSSAAFIPMYDEDLNLLILGSKGENNVKCFELMNEGLTFSYEVNSNDPMKGLCMMPKWSLDVKKCEFGRLYQLTYHSLFTIEMLLPRKQSCTEFQGDVFPSTFADHSAMSADEFFRGANADPREYDLSGMFDGHSPRLMGGSTPSPEKLPVAVQAAKPLMEAPKGETTTGREKSSVSVPESSEATSAPSDDKTEKHADPCADMTQRDILDKQRRLQELSEKVRTCHHEISALRKALHEKEAEMLQVLEDIQSI”, “not soluble”.
As for “MAHHHHHHMTFCGFGCVSTSEVGIIENCGKFDRTADPGCFCIVPCVESVRGVVSLKVAISTVRVETKTRDNAVVNIETRLHYKVIAECAEDAFYRFSNPSEQIASFAASVVRGEVPKYTLDELFLMSDEIKKVVSAELTEKLRGFGFSLESTLLTRIEPSASVKTAISQTQINAYRRTAAEHESELNKILAVKAAEADYEEKRLSGVGLAQERQAIMKGLKSSIESFVNAVPSMRAKDVMNLLLLNQYFDAMKEVGSGKSNKLILMPNTCGAAPNFMADLVAAQAGAARMM”, the “soluble on expression in E. coli” value is reported as “not soluble”.
Under “MAHHHHHHMTLGPTTRVTVNVTGTVTVPLHLNALESLDDAPLQEEIMREAVRLSLAEQLGGFDNFTVTSARKGGNHVCEARLDVGDLCSIIADVKNAYEHGERRLRELQQLITAIREQLKESGREGGSEDEDITVPGIVKVVSDMVEDALRGPGESSLSAAIREVSNDKSWLEEVPVGDRSGGAASKSDEDSPSGVGYTRLPDSGEDSNGSERQLE” stands “soluble”; under “MAHHHHHHMTNDTEQEQSPSAELAAAAPEPQPSQPQEFYSLRGESHNAVDQEKYGRARTHIAGLGHVSAKDVFKHYRRSWLTPFFGSNEPEPTLQQEGTQHPCQIFSREVHQCLEDHHNSFAFCQTRVAAFQQCLREFSI”, “not soluble”.
As to “MAHHHHHHMTQQWFPLMAVTPDYLHCITEERFRTNVYEPEADTFLLLEALDKDAHLLRALQPRRCVEIGCGSGTVISHLMLLLLGATEGGNLGSGSAEKSTAEFHAVDVNPVALEATSITWHNTQKRIIGGDTILPLHLHRGDLFSPFEHEASDITEYTKEEKEEFTFDVILFNPPYVPTTMEELQSAEAGKDLITAAWCGGPRGRVVVDRFISKLPSFLSSRGVCYIVAIRENDVEELMEVIRGTFPNDRCYPVNVTVTAERYTGEHLRVIRVS”, the “soluble on expression in E. coli” value is reported as “not soluble”.
As for “MAHHHHHHMTVARDHDIDDHDTSFTSFGGERPPFERIPVPSMASKEYTENLPAFDSDRPMPPPRSVFERFSRVMQLQFGQDPDMPLLGSRAERKYRSWLDYVTSPPSPLLPRNYVDAYTRPNPCPEEYWWASWRWPRIKYVNAKVPPPVDGKYNDYYHYLAYKNWMERERDVYVAHANLVNEMAMRCLVKEGQYNAAKNCRHLYHKGFAMSRMEELNQTLLYMALTGNAAIRETPYPENFVEEKRKIYDDWLFRTRMKKPGDVA”, the “soluble on expression in E. coli” value is reported as “not soluble”.
For “MAHHHHHHMTYYTVEEITDRRINENDGAIEYAVKWEGVAGELTWEKRHQLTENCAETVQAVDQRCMDATDEELERWRDGKWKRGAKRAHDAPPLVGTTTERRKRSRSVSPAAGEDLEQVEVLNGLLLRPPCGAQNAEEEGTILMLGEVVLAEEASAILNGTGSYRKKCRTATVSTAVAFHTAPALDIEKRWRGIHGQSLLHSIEVAQSITPFHPHFRLHGCDPATRCAMALEVERSSHLRIISIAPPLMTHSGAVFGLPVALDPLVGEKDVEQLRQSVQLESPLFGSAAQELVKPHVEQMVVRYIIPEVTPATDDDTATPTTELFPVHGRIASMPLSVFRVVFPQLLIDYLLTNSVVLR” the value was “not soluble”; for “MAHHHHHHMVALEREYILGSFCELRIITSLSSTQLSKVTLRKPVEDEDTSTAERAEVFGTELIPGVPVHLPPGRSLSIFTSTGCTLLLVAAPTVLQRCYATSLGATWVRSLLDFHSHLERARVEARGRDDVGPRVLFVSDRHHCGASTYVRWLSNFAVRLGYHPLLLDGVLDTPAFAFPGSVALFHAQHCMDIEEEMNLTPGLYAQVGQSRVANPRLYQHWVQQLLPSGMEKMARSERCRVGGLFFDFGVVEPHAVEQAEAAAAAAVPSVDPTASASSAPAALGSDKSHTNPLDTLLDTIVAADIDHVCVVGSSWLRWKLVQRAWERFGGEGSMSIVQAMLDPRWNVPPEVDCGGGQHFKIFLLDSVELVRSVPVPLWNRQRWLQYFFGTPTSPVKPTLITLEASQVRVATVGAAAMDAMSTLLPMMDSEDVDRQKADVAAVSFITLQDVALKDRIVAISTATEYERSPDGELHRLPFSVFERRIRQSTVLGFALVESVTPERLTLLVSGCPLDKELGLCFLLTEEVLKS”, “not soluble”.
Under “MAHHHHHHMVFSIPSYLCLGDRPKKVVDERLHGVNFLTSRPKTGHYPDALFDKEFRYVYNGDRYPDPETMARREQMENRKRYITATGFISVFRPKKGEGLGSNYGLLQQEPYIHMPDHPQTRGPQPFPKVKPRQIYTSPSKAGSYGTPGLAITDIGNEYIATIYDQERINAKKERDVWRQRMPPVPFKPVGRRGYTFDEGPATGVSMCYIMTCPFREKRVQPVMKHFIIDKMWLPAGYIPDRPPPVEYWEDPYNGFDPRVDPKSRLKKSEDSIFRTGFRGDNFFYTRSIVFRRL” stands “not soluble”.
